Results on 2 molecules are retold here after PMC8563870, “Development of a nanobody-based immunoassay for the sensitive detection of fibrinogen-like protein 1” (Acta Pharmacologica Sinica, 2021).

As usually defined, the Kd is the concentration at which binding is half-saturated. By stoichiometry N is commonly meant a count of units in the complex or per binding partner.

For one series, the target named is LAG-3 (Homo sapiens) (UniProt P18627). Particulars: cited from earlier work.
Series [1] concerns the molecule itself. Put plainly: SEC; Superdex 200, 20 mM Tris pH 8.0, 150 mM NaCl; FGL1-Fc after anti-Flag M2 affinity; one aggregate peak and two FGL1 peaks, the peak at approximately 66 mL taken as the homodimer. (In general: Size exclusion chromatography separates by hydrodynamic size, large species first.)

Sequence of LAG-3 (Homo sapiens) (P18627 23-450): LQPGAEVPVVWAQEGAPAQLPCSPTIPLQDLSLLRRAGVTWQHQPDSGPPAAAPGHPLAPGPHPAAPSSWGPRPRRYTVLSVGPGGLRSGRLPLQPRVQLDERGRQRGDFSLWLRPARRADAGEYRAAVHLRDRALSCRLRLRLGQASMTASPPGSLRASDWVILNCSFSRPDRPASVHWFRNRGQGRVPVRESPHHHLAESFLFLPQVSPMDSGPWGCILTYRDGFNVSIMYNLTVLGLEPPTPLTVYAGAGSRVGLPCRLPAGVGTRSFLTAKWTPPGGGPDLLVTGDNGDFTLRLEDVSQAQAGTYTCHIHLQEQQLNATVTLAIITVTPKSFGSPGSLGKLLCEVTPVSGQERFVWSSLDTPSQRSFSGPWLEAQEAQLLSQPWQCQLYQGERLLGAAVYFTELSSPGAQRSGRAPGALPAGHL

Regarding FGL1 (from UniProt Q08830), in the series with LAG-3 (Homo sapiens), the dissociation constant (Kd) was 1.5 nM.

B1: FGL1-Fc fusion protein (human fibrinogen-like protein 1 with C-terminal human IgG1 Fc and Flag tag) (Fc fusion, UniProt Q08830 23-306, looked up)
chain: LEDCAQEQMRLRAQVRLLETRVKQQQVKIKQLLQENEVQFLDKGDENTVIDLGSKRQYADCSEIFNDGYKLSGFYKIKPLQSPAEFSVYCDMSDGGGWTVIQRRSDGSENFNRGWKDYENGFGNFVQKHGEYWLGNKNLHFLTTQEDYTLKIDLADFEKNSRYAQYKNFKVGDEKNFYELNIGEYSGTAGDSLAGNFHPEVQWWASHQRMKFSTWDRDHDNYEGNCAEEDQSGWWFNRCHSANLNGVYYSGPYTAKTDNGIVWYTWHGWWYSLKSVVMKIRPND
notes: signal peptide in the construct; human fibrinogen-like protein 1 (FGL1), amino acids 1-306 of NCBI NM_004467, called full-length in the methods; the results say that the protein has 312 amino acids; A 3C protease site and a linker (GGGGS) stand between FGL1 and the Fc, and the Flag tag follows the Fc; The Fc may itself hold the dimer together; For SPR and the ELISAs the Fc was cut off with 3C …
Turning to B1, the “stoichiometry N” value in series [1] is 2.
